In US20250000946A1 (WUXI BIOLOGICS IRELAND, published 2025):
Where two headings read alike, the source gives them in different places.

Legend:
[1] = biological target: T1, Human IL-2Rβ/γ (intermediate affinity IL-2 receptor) (human, UniProt P14784 27-551; P31785 23-369); assay: FACS, HH cells; EC50 fold vs T2U0.E44-1
T1 construct: whole, on cells; also called IL-2Rβ/γc; IL-2Rβ (CD122) and γ (CD132)
T1 sequence (looked up) 1: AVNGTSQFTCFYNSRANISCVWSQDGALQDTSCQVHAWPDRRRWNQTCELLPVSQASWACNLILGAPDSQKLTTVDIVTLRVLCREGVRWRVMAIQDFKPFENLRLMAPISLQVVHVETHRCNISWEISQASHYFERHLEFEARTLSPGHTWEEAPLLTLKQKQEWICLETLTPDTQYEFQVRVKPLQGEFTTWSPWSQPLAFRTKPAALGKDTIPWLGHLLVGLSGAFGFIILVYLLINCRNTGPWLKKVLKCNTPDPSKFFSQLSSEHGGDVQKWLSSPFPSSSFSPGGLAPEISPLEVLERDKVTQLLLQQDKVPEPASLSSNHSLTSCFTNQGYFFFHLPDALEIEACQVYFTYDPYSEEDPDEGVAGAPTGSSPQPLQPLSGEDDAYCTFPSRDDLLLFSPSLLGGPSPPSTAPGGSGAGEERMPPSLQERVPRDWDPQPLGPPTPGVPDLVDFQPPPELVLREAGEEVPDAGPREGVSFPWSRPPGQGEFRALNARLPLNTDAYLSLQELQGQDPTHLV
T1 sequence (looked up) 2: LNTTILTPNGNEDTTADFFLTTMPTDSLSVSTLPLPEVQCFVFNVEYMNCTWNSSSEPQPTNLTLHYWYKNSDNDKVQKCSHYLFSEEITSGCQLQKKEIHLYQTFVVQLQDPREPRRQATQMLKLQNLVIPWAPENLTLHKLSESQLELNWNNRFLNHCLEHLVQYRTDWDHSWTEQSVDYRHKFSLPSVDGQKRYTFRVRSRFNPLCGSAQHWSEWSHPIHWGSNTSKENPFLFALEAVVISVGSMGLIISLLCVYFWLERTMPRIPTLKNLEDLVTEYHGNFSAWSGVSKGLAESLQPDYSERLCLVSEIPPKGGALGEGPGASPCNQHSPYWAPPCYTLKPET
Method: (§1) Human cutaneous T cell lymphoma HH cells, malignant non-Hodgkin's lymphoma NK92 cells and cutaneous T cell lymphoma MJ20 cells were used for binding assay. They both constitutively express IL-2Rβ (CD122) and […] (CD132), and NK92 and MJ20 also expresses IL-2Rα (CD25). HH, NK92 and MJ20 cells were cultured following ATCC guidance, then transferred to a 96-plate for binding analysis. Cells were incubated with IL-2/Fc fusion proteins at the indicated concentrations for 30 min at 4° C. to avoid internalization. Binding was detected by 2nd antibody of PE-anti-human Fc at 4° C. for another 30 min. The median fluorescence intensity (MFI) on HH and NK92 cells was measured using FACS.
(§2) IL-2 variants of T2U0.E44-6 and T2U0.E44-26 were used to construct bivalent variants W3XX115-T2.Z20-1.uIgG4V322 and W3XX115-T2.Z20-2.uIgG4V322 respectively.

[2] = biological target: T2, W369-hPro1.ECD.His, IL-2Rγ ECD (human, UniProt P31785 23-254); assay: SPR Biacore 8K; variant pre-mixed 1:1 with IL-2Rβ ECD-His, injected over captured IL-2Rγ ECD-His
T2 construct: Entry includes linker and C-terminal 6xHis tag; also called IL-2Rγc; CD132
T2 sequence: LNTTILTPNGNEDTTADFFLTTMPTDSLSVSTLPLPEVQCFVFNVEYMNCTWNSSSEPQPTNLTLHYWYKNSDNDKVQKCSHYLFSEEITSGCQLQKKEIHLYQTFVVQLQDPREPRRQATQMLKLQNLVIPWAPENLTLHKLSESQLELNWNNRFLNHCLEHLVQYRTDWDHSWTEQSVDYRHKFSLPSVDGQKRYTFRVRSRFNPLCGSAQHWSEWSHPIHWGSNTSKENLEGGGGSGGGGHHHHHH
Method: (§3) IL-2 variants binding affinity to IL-2 receptor were detected by SPR using Biacore 8K. For IL-2Rα binding assay, each variant was captured on anti-human Fc immobilized CM5 sensor chip (cytiva). W3XX115-hPro1.ECD.His at different concentrations were injected over the sensor chip at a flow rate of 30 uL/min for an association phase of 60 s, followed by 90 s dissociation. The chip was then regenerated by 10 mM Glycine-HCl pH1.5 after each binding cycle. For IL-2Rγ binding assay, IL-2 variants were mixed with W369-hPro2.ECD.His as 1:1 before assay, were detected by SPR using Biacore 8K. W3XX115-hPro1.ECD.His was captured on anti-His immobilized CM5 sensor chip (cytiva). The mixture were injected over the sensor chip as described above. The sensorgrams of blank surface and buffer channel were subtracted from the test sensorgrams. The experimental data was fitted by steady state affinity model. Molecular weight of W3XX115-hPro1.ECD.His or W369-hPro1.ECD.His was used to calculate the molar concentration of analyte.
(§4) For T3U0.E44-1 and T2U0.E44-33, no binding to IL-2Rα was detected.

[3] = biological target: T1, Human IL-2Rβ/γ (intermediate affinity …); assay: cell-based or functional assay
[4] = biological target: T3, W369-hPro2.ECD.His, IL2Rβ ECD (human, UniProt P14784 27-239); assay: SPR Biacore 8K; set-up for IL-2Rβ not described
T3 construct: Entry includes linker and C-terminal 6xHis tag; also called CD122
T3 sequence: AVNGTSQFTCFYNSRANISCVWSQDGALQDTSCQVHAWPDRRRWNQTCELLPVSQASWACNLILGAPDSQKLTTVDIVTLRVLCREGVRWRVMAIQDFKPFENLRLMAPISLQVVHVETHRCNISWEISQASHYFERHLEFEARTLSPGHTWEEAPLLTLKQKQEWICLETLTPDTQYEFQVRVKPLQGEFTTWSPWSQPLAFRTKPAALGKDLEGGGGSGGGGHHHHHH

[5] = biological target: T1, Human IL-2Rβ/γ (intermediate affinity …); assay: cell-based or functional assay; remark: listed apart in the source
[6] = biological target: T4, W3XX115-hPro1.ECD.His, IL2Rα ECD (Homo sapiens (Human), UniProt P01589 22-213); assay: SPR Biacore 8K; variant captured on anti-human Fc chip, IL-2Rα ECD-His injected
T4 construct: Entry includes the C-terminal 6xHis tag; also called CD25
T4 sequence: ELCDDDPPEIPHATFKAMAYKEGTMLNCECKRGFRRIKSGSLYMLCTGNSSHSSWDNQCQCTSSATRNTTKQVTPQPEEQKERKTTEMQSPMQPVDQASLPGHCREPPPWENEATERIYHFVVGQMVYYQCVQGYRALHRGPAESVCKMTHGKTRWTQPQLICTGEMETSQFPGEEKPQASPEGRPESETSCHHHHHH
Method: as §3, §4

[7] = biological target: T1, Human IL-2Rβ/γ (intermediate affinity …); assay: FACS, HH cells
Method in brief: (§5)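 IL-2/Fc fusion proteins were incubated with cells for 30 min at 4° C. to prevent internalization, then bound protein was detected with PE-anti-human Fc for 30 min at 4° C. Median fluorescence intensity was read by FACS. HH cells express IL-2Rβ and γ; NK92 and MJ20 also express IL-2Rα.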

[8] = biological target: T1, Human IL-2Rβ/γ (intermediate affinity …); assay: FACS, HH cells; EC50 fold vs T2U0.E44-1; remark: listed apart in the source
Method in brief: as §5

[9] = biological target: T1, Human IL-2Rβ/γ (intermediate affinity …); assay: FACS, HH cells; remark: listed apart in the source
Method: as §1, §2

- Affinity reduction [1]: 0.9 fold
- binding result [2]: binds
- Potency EC50, STAT5 phosphorylation in CD8+ T (column headed Human Treg) [3]: 11.7 nM
- Potency reduction, CD8+ T (column headed Human Treg) [3]: 1 fold
- Kd [4]: 2260 nM
- Human CD8+ T Potency EC50 (STAT5 phosphorylation) [5]: 7.87 nM
- Human CD8+ T Potency reduction [5]: 2.2 fold
- binding result [6]: no binding
- EC50 [7]: 64.1 nM
- Affinity reduction [8]: 1.3 fold
- EC50 [9]: 29.3 nM
B1: W3XX115-T3U0.E44-1.uIgG4V322 (Fc fusion)
chain: APTSSSTKKTQLQLEHLLLDLQMILNGINNYKNPKLTRMLTAKFAMPKKATELKHLQCLEEELKPLEEVLNGAQSKNFHLRPRDLISNINVIVLELKGSETTFMCEYADETATIVEFLNRWITFCQSIISTLTESKYGPPCPPCPAPEAAGGPSVFLFPPKPKDTLMISRTPEVTCVVVDVSQEDPEVQFNWYVDGVEVHNAKTKPREEQFNSTYRVVSVLTVLHQDWLNGKEYKCKVSNKGLPSSIEKTISKAKGQPREPQVYTLPPCQEEMTKNQVSLWCLVKGFYPSDIAVEWESNGQPENNYKTTPPVLDSDGSFFLYSRLTVDKSRWQEGNVFSCSVMHEALHNHYTQKSLSLSLG
heavy: EIQLQQSGPELVKPGASVKVSCKASGYSFTDYNMYWVKQSHGESLEWIGYIDPYNGGTRYNQKFKGKATLTVDKSSSTAFMHLNSLTSEDSAVYYCARNGHWDGAWFAYWGQGTLVTVSAASTKGPSVFPLAPCSRSTSESTAALGCLVKDYFPEPVTVSWNSGALTSGVHTFPAVLQSSGLYSLSSVVTVPSSSLGTKTYTCNVDHKPSNTKVDKRVESKYGPPCPPCPAPEAAGGPSVFLFPPKPKDTLMISRTPEVTCVVVDVSQEDPEVQFNWYVDGVEVHNAKTKPREEQFNSTYRVVSVLTVLHQDWLNGKEYKCKVSNKGLPSSIEKTISKAKGQPREPQVCTLPPSQEEMTKNQVSLSCAVKGFYPSDIAVEWESNGQPENNYKTTPPVLDSDGSFFLVSRLTVDKSRWQEGNVFSCSVMHEALHNHYTQKSLSLSLG
light: DIQMNQSPSSLSASLGDTITITCHASQNINVWLSWYQQKPGNIPKLLIYKASNLHTGVPSRFSGSRSGTGFTLTISSLQPEDIATYYCHQGQSYPFTFGSGTKLEIKRTVAAPSVFIFPPSDEQLKSGTASVVCLLNNFYPREAKVQWKVDNALQSGNSQESVTEQDSKDSTYSLSSTLTLSKADYEKHKVYACEVTHQGLSSPVTKSFNRGEC
notes: E44 format, IgG4 FALA; also called non-α IL-2
